Data on three molecules can be found in US20050176630A1.

One may read the IC50 as the concentration at which inhibition is half-maximal.

No end group written: not given here.

The target of assay [1] is MC3-R in mouse arcuate nucleus slices (mouse) (UniProt P33033). In words: cell-based or functional assay.
Assay [2] addresses µ opioid receptor on POMC neurons in mouse hypothalamic slices (mouse) (UniProt P42866). The assay can be described thus: cell-based or functional assay.
Assay [3] deals with T1, NPY Y2 receptor (expressed on a cell line).
T1 sequence (P49146 whole entry, species assumed, looked up): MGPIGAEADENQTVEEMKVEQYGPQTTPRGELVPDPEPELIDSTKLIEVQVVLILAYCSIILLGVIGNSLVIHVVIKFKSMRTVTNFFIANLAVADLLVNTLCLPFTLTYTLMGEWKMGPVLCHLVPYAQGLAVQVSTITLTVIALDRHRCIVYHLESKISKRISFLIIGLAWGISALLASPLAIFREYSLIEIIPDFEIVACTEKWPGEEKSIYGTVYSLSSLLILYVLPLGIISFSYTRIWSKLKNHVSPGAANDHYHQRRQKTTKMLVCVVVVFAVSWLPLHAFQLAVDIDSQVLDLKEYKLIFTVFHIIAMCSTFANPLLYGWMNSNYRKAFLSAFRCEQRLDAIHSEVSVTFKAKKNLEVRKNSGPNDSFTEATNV
In words: receptor-binding study on a cell line expressing the NPY Y2 receptor; labelled ligand not named.

Sequence of µ opioid receptor on POMC neurons in mouse hypothalamic slices (mouse) (P42866 whole entry): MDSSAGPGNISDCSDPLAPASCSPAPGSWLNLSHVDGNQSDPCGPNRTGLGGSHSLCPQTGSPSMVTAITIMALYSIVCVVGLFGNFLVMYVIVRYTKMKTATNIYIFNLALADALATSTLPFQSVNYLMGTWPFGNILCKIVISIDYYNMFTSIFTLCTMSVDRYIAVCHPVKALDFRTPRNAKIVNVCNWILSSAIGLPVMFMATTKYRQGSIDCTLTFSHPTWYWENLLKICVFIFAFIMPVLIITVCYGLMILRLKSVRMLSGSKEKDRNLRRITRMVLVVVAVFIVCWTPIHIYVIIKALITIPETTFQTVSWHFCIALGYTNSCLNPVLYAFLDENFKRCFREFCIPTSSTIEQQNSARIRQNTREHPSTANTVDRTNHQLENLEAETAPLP
Sequence of MC3-R in mouse arcuate nucleus slices (mouse) (P33033 whole entry): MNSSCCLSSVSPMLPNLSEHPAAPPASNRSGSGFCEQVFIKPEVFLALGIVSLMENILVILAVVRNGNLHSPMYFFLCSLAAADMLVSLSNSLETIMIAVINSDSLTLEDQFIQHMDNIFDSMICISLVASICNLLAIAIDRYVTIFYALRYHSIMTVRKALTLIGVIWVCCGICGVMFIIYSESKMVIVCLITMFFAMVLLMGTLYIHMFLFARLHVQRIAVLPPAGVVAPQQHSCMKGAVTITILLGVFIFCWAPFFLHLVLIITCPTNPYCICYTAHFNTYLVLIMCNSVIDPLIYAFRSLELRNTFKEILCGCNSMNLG

Molecule D-Trp^8-γMSH (peptide) showed a frequency of GABAergic IPSCs recorded from POMC neurons (D-Trp^8-γMSH 7 nM) in assay [1] of 280%. In turn, “met-enkephalin (from UniProt P01210 100-104) (peptide)” returned a hyperpolarization of the membrane potential of POMC cells (Met-Enk 30 µM) in assay [2] of 10 to 20 mV. With Ac-LRHYLNLLTRQRY (ends and bridges not checked) [N-acetyl (Leu^28, Leu^31) NPY (24-36)], the IC50 in assay [3] was determined as 1.3 nM.
